{
  "source": "paper PMC8194828",
  "key": {"[1]": {"test_system": "PIP4K2A (WT) (Homo sapiens)", "assay": "EMSA", "conditions": "EMSA 60 min 16 C, 5 ug yeast tRNA, 40 U RNase inhibitor; fluorescent: 500 mM NaCl, 10 mM Tris pH 7.5, 10% glycerol; radioactive: 30 mM KCl, 1 mM MgCl2, 40 mM …"}, "[2]": {"test_system": "PIP4K2A G131L Y138F (kinase dead) (Homo sapiens)", "assay": "EMSA", "conditions": "EMSA 60 min 16 C, 5 ug yeast tRNA, 40 U RNase inhibitor; fluorescent: 500 mM NaCl, 10 mM Tris pH 7.5, 10% glycerol; radioactive: 30 mM KCl, 1 mM MgCl2, 40 mM …"}},
  "data": [
    {"substance": "RAD51 3'UTR", "values": [
      {"measurement": "Kd", "setting": "[1]", "result": 750, "unit": "nM"}
    ]},
    {"substance": "RAD51-short (5' proximal 35 bases of RAD51 3'UTR)", "values": [
      {"measurement": "Kd", "setting": "[2]", "result": 850, "unit": "nM"},
      {"measurement": "Kd", "setting": "[1]", "result": 500, "unit": "nM"}
    ]}
  ]
}
